IntAct's records for PubMed 12006496

B1: Phytochrome B (Arabidopsis thaliana (Mouse-ear cress)), P14713 (parent)
chain: MVSGVGGSGGGRGGGRGGEEEPSSSHTPNNRRGGEQAQSSGTKSLRPRSNTESMSKAIQQYTVDARLHAVFEQSGESGKSFDYSQSLKTTTYGSSVPEQQITAYLSRIQRGGYIQPFGCMIAVDESSFRIIGYSENAREMLGIMPQSVPTLEKPEILAMGTDVRSLFTSSSSILLERAFVAREITLLNPVWIHSKNTGKPFYAILHRIDVGVVIDLEPARTEDPALSIAGAVQSQKLAVRAISQLQALPGGDIKLLCDTVVESVRDLTGYDRVMVYKFHEDEHGEVVAESKRDDLEPYIGLHYPATDIPQASRFLFKQNRVRMIVDCNATPVLVVQDDRLTQSMCLVGSTLRAPHGCHSQYMANMGSIASLAMAVIINGNEDDGSNVASGRSSMRLWGLVVCHHTSSRCIPFPLRYACEFLMQAFGLQLNMELQLALQMSEKRVLRTQTLLCDMLLRDSPAGIVTQSPSIMDLVKCDGAAFLYHGKYYPLGVAPSEVQIKDVVEWLLANHADSTGLSTDSLGDAGYPGAAALGDAVCGMAVAYITKRDFLFWFRSHTAKEIKWGGAKHHPEDKDDGQRMHPRSSFQAFLEVVKSRSQPWETAEMDAIHSLQLILRDSFKESEAAMNSKVVDGVVQPCRDMAGEQGIDELGAVAREMVRLIETATVPIFAVDAGGCINGWNAKIAELTGLSVEEAMGKSLVSDLIYKENEATVNKLLSRALRGDEEKNVEVKLKTFSPELQGKAVFVVVNACSSKDYLNNIVGVCFVGQDVTSQKIVMDKFINIQGDYKAIVHSPNPLIPPIFAADENTCCLEWNMAMEKLTGWSRSEVIGKMIVGEVFGSCCMLKGPDALTKFMIVLHNAIGGQDTDKFPFPFFDRNGKFVQALLTANKRVSLEGKVIGAFCFLQIPSPELQQALAVQRRQDTECFTKAKELAYICQVIKNPLSGMRFANSLLEATDLNEDQKQLLETSVSCEKQISRIVGDMDLESIEDGSFVLKREEFFLGSVINAIVSQAMFLLRDRGLQLIRDIPEEIKSIEVFGDQIRIQQLLAEFLLSIIRYAPSQEWVEIHLSQLSKQMADGFAAIRTEFRMACPGEGLPPELVRDMFHSSRWTSPEGLGLSVCRKILKLMNGEVQYIRESERSYFLIILELPVPRKRPLSTASGSGDMMLMMPY
partner: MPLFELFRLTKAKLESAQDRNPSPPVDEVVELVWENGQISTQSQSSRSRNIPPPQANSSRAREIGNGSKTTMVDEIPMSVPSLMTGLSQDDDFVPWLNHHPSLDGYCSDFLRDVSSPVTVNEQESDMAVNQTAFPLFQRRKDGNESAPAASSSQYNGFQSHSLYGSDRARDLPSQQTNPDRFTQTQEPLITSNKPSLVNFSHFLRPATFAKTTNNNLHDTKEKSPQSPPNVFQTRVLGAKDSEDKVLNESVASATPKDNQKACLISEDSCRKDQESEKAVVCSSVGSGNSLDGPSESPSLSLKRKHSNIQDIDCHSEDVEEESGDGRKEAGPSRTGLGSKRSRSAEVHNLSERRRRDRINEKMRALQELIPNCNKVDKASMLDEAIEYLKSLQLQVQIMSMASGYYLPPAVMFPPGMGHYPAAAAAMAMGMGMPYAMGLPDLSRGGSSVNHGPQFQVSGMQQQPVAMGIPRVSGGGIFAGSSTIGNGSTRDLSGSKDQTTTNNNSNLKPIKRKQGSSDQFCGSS
B2: Phytochrome B (Arabidopsis thaliana (Mouse-ear cress)), P14713 (parent)
chain: B1 chain
partner: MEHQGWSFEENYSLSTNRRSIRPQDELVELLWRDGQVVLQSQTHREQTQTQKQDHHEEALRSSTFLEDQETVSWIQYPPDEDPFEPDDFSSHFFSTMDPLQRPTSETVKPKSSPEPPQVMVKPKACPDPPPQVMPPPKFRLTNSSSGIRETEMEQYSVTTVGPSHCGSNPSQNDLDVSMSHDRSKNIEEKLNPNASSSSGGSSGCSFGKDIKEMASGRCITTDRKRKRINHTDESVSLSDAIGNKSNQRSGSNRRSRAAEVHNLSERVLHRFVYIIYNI
B3: Phytochrome A (Arabidopsis thaliana (Mouse-ear cress)), P14712 (parent)
chain: MSGSRPTQSSEGSRRSRHSARIIAQTTVDAKLHADFEESGSSFDYSTSVRVTGPVVENQPPRSDKVTTTYLHHIQKGKLIQPFGCLLALDEKTFKVIAYSENASELLTMASHAVPSVGEHPVLGIGTDIRSLFTAPSASALQKALGFGDVSLLNPILVHCRTSAKPFYAIIHRVTGSIIIDFEPVKPYEVPMTAAGALQSYKLAAKAITRLQSLPSGSMERLCDTMVQEVFELTGYDRVMAYKFHEDDHGEVVSEVTKPGLEPYLGLHYPATDIPQAARFLFMKNKVRMIVDCNAKHARVLQDEKLSFDLTLCGSTLRAPHSCHLQYMANMDSIASLVMAVVVNEEDGEGDAPDATTQPQKRKRLWGLVVCHNTTPRFVPFPLRYACEFLAQVFAIHVNKEVELDNQMVEKNILRTQTLLCDMLMRDAPLGIVSQSPNIMDLVKCDGAALLYKDKIWKLGTTPSEFHLQEIASWLCEYHMDSTGLSTDSLHDAGFPRALSLGDSVCGMAAVRISSKDMIFWFRSHTAGEVRWGGAKHDPDDRDDARRMHPRSSFKAFLEVVKTRSLPWKDYEMDAIHSLQLILRNAFKDSETTDVNTKVIYSKLNDLKIDGIQELEAVTSEMVRLIETATVPILAVDSDGLVNGWNTKIAELTGLSVDEAIGKHFLTLVEDSSVEIVKRMLENALEGTEEQNVQFEIKTHLSRADAGPISLVVNACASRDLHENVVGVCFVAHDLTGQKTVMDKFTRIEGDYKAIIQNPNPLIPPIFGTDEFGWCTEWNPAMSKLTGLKREEVIDKMLLGEVFGTQKSCCRLKNQEAFVNLGIVLNNAVTSQDPEKVSFAFFTRGGKYVECLLCVSKKLDREGVVTGVFCFLQLASHELQQALHVQRLAERTAVKRLKALAYIKRQIRNPLSGIMFTRKMIEGTELGPEQRRILQTSALCQKQLSKILDDSDLESIIEGCLDLEMKEFTLNEVLTASTSQVMMKSNGKSVRITNETGEEVMSDTLYGDSIRLQQVLADFMLMAVNFTPSGGQLTVSASLRKDQLGRSVHLANLEIRLTHTGAGIPEFLLNQMFGTEEDVSEEGLSLMVSRKLVKLMNGDVQYLRQAGKSSFIITAELAAANK
partner: B1 partner
B4: Phytochrome A (Arabidopsis thaliana (Mouse-ear cress)), P14712 (parent)
chain: B3 chain
partner: B2 partner

Variants of: B1
Conditions: with pif3_arath PIF3, O80536

| Variant | effect of a mutation on the interaction |
| --- | --- |
| G767R | decreasing interaction |

Variants of: B2
Conditions: with PIF4, Q8W2F3-2

| Variant | effect of a mutation on the interaction |
| --- | --- |
| G767R | decreasing interaction |

Variants of: B3
Conditions: with pif3_arath PIF3, O80536

| Variant | effect of a mutation on the interaction |
| --- | --- |
| G750E | decreasing interaction |
| A715V | decreasing interaction |

Variants of: B4
Conditions: with PIF4, Q8W2F3-2

| Variant | effect of a mutation on the interaction |
| --- | --- |
| G787E | decreasing interaction |
| A715V | decreasing interaction |
